Results published in patent US20230212549A1 (3B PHARMACEUTICALS, published 2023).
Where “and” joins values, the source holds several entries; their conditions need not be identical. Equal entries are not always repeated. Numbered stars: 1 amine (or outer) side, 2 acyl side, 3 side chain; on linkers, the order of the positions; unused ones are H or OH. Bridge positions count the residues as written; N and C are the ends. Square brackets hold non-standard residues; d marks the D form. * marks the point of attachment. tMeBn(DOTA-PP) = 1,3,5-trimethylbenzylidene, two thioethers to Cys, third CH2 bound to one N of piperazine whose other N bears DOTA, O=C(O)CN1CCN(CC(=O)O)CCN(CC(=O)N2CCN(Cc3cc(C[*:1])cc(C[*:2])c3)CC2)CCN(CC(=O)O)CC1; Ttds = 1,13-diamino-4,7,10-trioxatridecan-succinamic acid, O=C(CCC(=O)[*:2])NCCCOCCOCCOCCCN[*:1]; DTPA = O=C(O)CN(CCN(CC(=O)O)CC(=O)O)CCN(CC(=O)O)CC(=O)*; Pro(4S-NH2) = N[C@@H]1CN[C@H](C(=O)O)C1; Pro(4,4-F2) = O=C(O)[C@@H]1CC(F)(F)CN1; mXylylene = c1cc(C[*:1])cc(C[*:2])c1; NMeF = CN[C@@H](Cc1ccccc1)C(=O)O; Tic = O=C(O)[C@@H]1Cc2ccccc2CN1; Nle = CCCC[C@H](N)C(=O)O; Orn = NCCC[C@H](N)C(=O)O; Hexanoyl = CCCCCC(=O)*

B1: Hex-[Cys(3MeBn)-Pro-Pro-Orn(Ac)-Glu-Phe-Cys]-NH2 (peptide)
peptide: Hexanoyl-CPP[Orn](Ac)EFC-NH2
modifications: linker 1-7 via mXylylene
SMILES: CCCCCC(=O)N[C@H]1CSCc2cccc(c2)CSC[C@@H](C(N)=O)NC(=O)[C@H](Cc2ccccc2)NC(=O)[C@H](CCC(=O)O)NC(=O)[C@H](CCCNC(C)=O)NC(=O)[C@@H]2CCCN2C(=O)[C@@H]2CCCN2C1=O
notes: also called 3BP-3372
B2: Hex-[Cys(3MeBn)-Pro-4Dfp-Thr-Glu-Phe-Cys]-NH2 (peptide)
peptide: Hexanoyl-CP[Pro(4,4-F2)]TEFC-NH2
modifications: linker 1-7 via mXylylene
SMILES: CCCCCC(=O)N[C@H]1CSCc2cccc(c2)CSC[C@@H](C(N)=O)NC(=O)[C@H](Cc2ccccc2)NC(=O)[C@H](CCC(=O)O)NC(=O)[C@H]([C@@H](C)O)NC(=O)[C@@H]2CC(F)(F)CN2C(=O)[C@@H]2CCCN2C1=O
notes: also called 3BP-3365
B3: Hex-[Cys(3MeBn)-Pro-Pro-Thr-Glu-Nmf-Cys]-NH2 (peptide)
peptide: Hexanoyl-CPPTE[NMeF]C-NH2
modifications: linker 1-7 via mXylylene
SMILES: CCCCCC(=O)N[C@H]1CSCc2cccc(c2)CSC[C@@H](C(N)=O)NC(=O)[C@H](Cc2ccccc2)N(C)C(=O)[C@H](CCC(=O)O)NC(=O)[C@H]([C@@H](C)O)NC(=O)[C@@H]2CCCN2C(=O)[C@@H]2CCCN2C1=O
notes: also called 3BP-3358
B4: Hex-[Cys(3MeBn)-Pro-Tap-Thr-Glu-Phe-Cys]-NH2 (peptide)
peptide: Hexanoyl-CP[Pro(4S-NH2)]TEFC-NH2
modifications: linker 1-7 via mXylylene
SMILES: CCCCCC(=O)N[C@H]1CSCc2cccc(c2)CSC[C@@H](C(N)=O)NC(=O)[C@H](Cc2ccccc2)NC(=O)[C@H](CCC(=O)O)NC(=O)[C@H]([C@@H](C)O)NC(=O)[C@@H]2C[C@H](N)CN2C(=O)[C@@H]2CCCN2C1=O
notes: also called 3BP-3367
B5: Hex-[Cys(3MeBn)-Pro-Pro-Thr-Glu-Tic-Cys]-NH2 (peptide)
peptide: Hexanoyl-CPPTE[Tic]C-NH2
modifications: linker 1-7 via mXylylene
SMILES: CCCCCC(=O)N[C@H]1CSCc2cccc(c2)CSC[C@@H](C(N)=O)NC(=O)[C@@H]2Cc3ccccc3CN2C(=O)[C@H](CCC(=O)O)NC(=O)[C@H]([C@@H](C)O)NC(=O)[C@@H]2CCCN2C(=O)[C@@H]2CCCN2C1=O
notes: also called 3BP-3359
B6: Hex-[Cys(tMeBn(DOTA-PP))-Pro-Pro-Ala-Gln-Phe-Cys]-Asp-NH2 (peptide)
peptide: Hexanoyl-CPPAQFCD-NH2
modifications: linker 1-7 via tMeBn(DOTA-PP)
SMILES: CCCCCC(=O)N[C@H]1CSCc2cc(cc(CN3CCN(C(=O)CN4CCN(CC(=O)O)CCN(CC(=O)O)CCN(CC(=O)O)CC4)CC3)c2)CSC[C@@H](C(=O)N[C@@H](CC(=O)O)C(N)=O)NC(=O)[C@H](Cc2ccccc2)NC(=O)[C@H](CCC(N)=O)NC(=O)[C@H](C)NC(=O)[C@@H]2CCCN2C(=O)[C@@H]2CCCN2C1=O
notes: also called 3BP-3745
B7: Hex-[Cys(tMeBn(DOTA-PP))-Pro-Pro-Thr-Ala-Phe-Cys]-Asp-NH2 (peptide)
peptide: Hexanoyl-CPPTAFCD-NH2
modifications: linker 1-7 via tMeBn(DOTA-PP)
SMILES: CCCCCC(=O)N[C@H]1CSCc2cc(cc(CN3CCN(C(=O)CN4CCN(CC(=O)O)CCN(CC(=O)O)CCN(CC(=O)O)CC4)CC3)c2)CSC[C@@H](C(=O)N[C@@H](CC(=O)O)C(N)=O)NC(=O)[C@H](Cc2ccccc2)NC(=O)[C@H](C)NC(=O)[C@H]([C@@H](C)O)NC(=O)[C@@H]2CCCN2C(=O)[C@@H]2CCCN2C1=O
notes: also called 3BP-3739
B8: Hex-[Cys(tMeBn(DOTA-PP))-Pro-Gln-Phe-Pro-Thr-Cys]-Asp-NH2 (peptide)
peptide: Hexanoyl-CPQFPTCD-NH2
modifications: linker 1-7 via tMeBn(DOTA-PP)
SMILES: CCCCCC(=O)N[C@H]1CSCc2cc(cc(CN3CCN(C(=O)CN4CCN(CC(=O)O)CCN(CC(=O)O)CCN(CC(=O)O)CC4)CC3)c2)CSC[C@@H](C(=O)N[C@@H](CC(=O)O)C(N)=O)NC(=O)[C@H]([C@@H](C)O)NC(=O)[C@@H]2CCCN2C(=O)[C@H](Cc2ccccc2)NC(=O)[C@H](CCC(N)=O)NC(=O)[C@@H]2CCCN2C1=O
notes: also called 3BP-3857
B9: DTPA-Ttds-Nle-[Cys-(3MeBn)-Pro-Pro-Thr-Glu-Phe-Cys]-OH (peptide)
peptide: {DTPA}-[Ttds][Nle]CPPTEFC-OH
modifications: linker 3-9 via mXylylene
SMILES: CCCC[C@H](NC(=O)CCC(=O)NCCCOCCOCCOCCCNC(=O)CN(CCN(CCN(CC(=O)O)CC(=O)O)CC(=O)O)CC(=O)O)C(=O)N[C@H]1CSCc2cccc(c2)CSC[C@@H](C(=O)O)NC(=O)[C@H](Cc2ccccc2)NC(=O)[C@H](CCC(=O)O)NC(=O)[C@H]([C@@H](C)O)NC(=O)[C@@H]2CCCN2C(=O)[C@@H]2CCCN2C1=O
notes: also called 3BP-4229

What follows are binders tested against Recombinant human FAP (R&D systems, #3715-SE) (human, UniProt Q12884 26-760) (assay: cell-based or functional assay).

| pIC50 Category (Activity) | Binder |
| --- | --- |
| 6.1 pIC50 and 7 pIC50 | B1 |
| 6.1 pIC50 and 7 pIC50 | B2 |
| 6.1 pIC50 and 7 pIC50 | B3 |
| 6.1 pIC50 and 7 pIC50 | B4 |
| 6.1 pIC50 and 7 pIC50 | B5 |

These binders were tested against T1, fibroblast activation protein (FAP) on FAP-expressing human WI-38 fibroblasts (human, UniProt Q12884 1-760) (assay: competitive FACS, WI-38 cells, vs Cy5 tracer m3; D = pIC50 <=6.0).
T1 construct: also called human FAP

| pIC50 Category (FACS) [pIC50] | Binder |
| --- | --- |
| ≤ 6 | B1 |
| ≤ 6 | B2 |
| ≤ 6 | B3 |
| ≤ 6 | B4 |
| ≤ 6 | B5 |

Each binder was assayed against T2, human fibroblast activation protein (FAP) on WI-38 fibroblasts (human, UniProt Q12884 1-760) (assay: competitive FACS, WI-38 cells, Cy5-labeled peptide as competitor; C = pIC50 6.1 to 7.0).
T2 construct: FAP-expressing human WI-38 fibroblasts (ECACC)

| pIC50 [pic50] | Binder |
| --- | --- |
| 6.1 to 7 | B6 |
| 6.1 to 7 | B7 |
| 6.1 to 7 | B8 |
| 6.1 to 7 | B9 |
